The text below walks through data of publication PMC12269619.

The target in assay [1] is Biotinylated junctional peptide NPDP19 (Plasmodium falciparum (clone 3D7)) (UniProt Q7K740). The experiment in a line: BLI.
Assay [2] has as its target PfCSPm. Description: BLI; KD1.
Assay [3] has as its target PfCSPm. The experiment in a line: BLI; KD2, second site. Background: Biolayer interferometry detects binding as a change in optical thickness at a sensor tip.

The term Kd denotes the free concentration of one partner at which half of the binding sites on the other are occupied at equilibrium, for simple one-to-one binding. Read a low Kd as tighter binding. As to CIS43 mature, the equilibrium dissociation constant (Kd) in assay [1] was found to be 8.6 nM; with PfCSPm [2], 45.2 nM; with PfCSPm [3], 1300 nM.
